The values below come from publication PMC3792639, “Complex structure of type VI peptidoglycan muramidase effector and a cognate immunity protein” (Acta Crystallographica Section D: Biological Crystallography, 2013).

Sequences and labels used below:
T1: Tse3 (type VI secretion exported 3), native recombinant protein (P. aeruginosa, UniProt Q9HYC5 1-408)
T1 construct: Tse3, type VI secretion exported 3, peptidoglycan muramidase effector of Pseudomonas aeruginosa; full-length, synthetic gene in pET-22b (NdeI/XhoI); Removal of the His tag is not mentioned; also called muramidase effector; source: E. coli BL21(DE3), purified (Ni-NTA, cation exchange, SEC)
T1 sequence: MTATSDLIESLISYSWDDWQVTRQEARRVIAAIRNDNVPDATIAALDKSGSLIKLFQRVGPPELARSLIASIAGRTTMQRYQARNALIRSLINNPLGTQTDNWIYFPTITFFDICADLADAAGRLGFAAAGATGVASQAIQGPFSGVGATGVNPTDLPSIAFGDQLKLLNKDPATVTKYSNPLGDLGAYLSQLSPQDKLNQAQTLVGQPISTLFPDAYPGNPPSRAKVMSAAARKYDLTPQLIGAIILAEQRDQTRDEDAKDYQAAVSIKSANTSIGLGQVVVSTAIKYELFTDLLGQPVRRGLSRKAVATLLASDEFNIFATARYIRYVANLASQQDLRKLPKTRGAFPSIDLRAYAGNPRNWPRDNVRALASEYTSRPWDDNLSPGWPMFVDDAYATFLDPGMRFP

B1: Tsi3, truncated, without the N-terminal signal peptide (wild type) (natural protein)
chain: GVDFDKTLTHPNGLVVERPVGFDARRSAEGFRFDEGGKLRNPRQLEVQRQDAPPPPDLASRRLGDGEARYKVEEDDGGSAGSEYRLWAAKPAGARWIVVSASEQSEDGEPTFALAWALLERARLQ
notes: Tsi3, immunity protein of Tse3, Pseudomonas aeruginosa; truncated, without the N-terminal signal peptide (residues 1-20); synthetic gene in pET-22b (NdeI/XhoI); also called wild-type Tsi3; cognate immunity protein; source: E. coli BL21(DE3), purified (Ni-NTA, ion exchange, SEC)
B2: Tsi3 S99A (natural protein)
chain: GVDFDKTLTHPNGLVVERPVGFDARRSAEGFRFDEGGKLRNPRQLEVQRQDAPPPPDLASRRLGDGEARYKVEEDDGGAAGSEYRLWAAKPAGARWIVVSASEQSEDGEPTFALAWALLERARLQ
notes: Tsi3, Pseudomonas aeruginosa, mutant of the truncated construct without the signal peptide (residues 1-20)
B3: Tsi3 Q124A (natural protein)
chain: GVDFDKTLTHPNGLVVERPVGFDARRSAEGFRFDEGGKLRNPRQLEVQRQDAPPPPDLASRRLGDGEARYKVEEDDGGSAGSEYRLWAAKPAGARWIVVSASEASEDGEPTFALAWALLERARLQ
notes: as for B2
B4: Tsi3 E103A (natural protein)
chain: GVDFDKTLTHPNGLVVERPVGFDARRSAEGFRFDEGGKLRNPRQLEVQRQDAPPPPDLASRRLGDGEARYKVEEDDGGSAGSAYRLWAAKPAGARWIVVSASEQSEDGEPTFALAWALLERARLQ
notes: as for B2
B5: Tsi3 E126A (natural protein)
chain: GVDFDKTLTHPNGLVVERPVGFDARRSAEGFRFDEGGKLRNPRQLEVQRQDAPPPPDLASRRLGDGEARYKVEEDDGGSAGSEYRLWAAKPAGARWIVVSASEQSADGEPTFALAWALLERARLQ
notes: as for B2

One assay addresses T1, Tse3 (type VI secretion exported 3), …. The experiment in a line: SPR; Biacore 3000, 298 K; Tse3 immobilised on a CM5 chip (2689.1-3396.3 RU); Tsi3 injected, single-cycle kinetics, five concentrations (0.02-1.62 µM for wild type, E103A, Q124A; 0.1-8.1 µM for R60A, S99A, E126A); running buffer 50 mM HEPES pH 7.5, 100 mM NaCl, 0.005% Tween-20; 1:1 Langmuir fit. Conditions: both partners purified.
As a reminder, the Kd is the concentration at which binding is half-saturated. As a reminder, the kon is the second-order rate constant of association. B1: the Kd is 28.1 nM and the kon was determined as 12900 M⁻¹ s⁻¹.
Take B2: the Kd amounted to 3290 nM and the association rate constant (kon) is 8990 M⁻¹ s⁻¹.
Take B3: the Kd was 58.8 nM and the kon came to 17300 M⁻¹ s⁻¹.
For B4 the same measures were 43.6 nM and 14300 M⁻¹ s⁻¹.
For B5 the same measures were 417 nM and 12100 M⁻¹ s⁻¹.

Another assay shares this target. The experiment in a line: not stated; stoichiometry observed in solution; method not given. Conditions: both partners purified.
The stoichiometry N is the number of molecules, sites or subunits per partner or assembly. B1: the “stoichiometry N” value was 1.
